The record followed here is FireProtDB (doi:10.1021/tx3002115).

The Tm is the temperature at which the thermal transition is half complete.

B1: DNA polymerase IV, Q97W02 (parent)
chain: MIVLFVDFDYFYAQVEEVLNPSLKGKPVVVCVFSGRFEDSGAVATANYEARKFGVKAGIPIVEAKKILPNAVYLPMRKEVYQQVSSRIMNLLREYSEKIEIASIDEAYLDISDKVRDYREAYNLGLEIKNKILEKEKITVTVGISKNKVFAKIAADMAKPNGIKVIDDEEVKRLIRELDIADVPGIGNITAEKLKKLGINKLVDTLSIEFDKLKGMIGEAKAKYLISLARDEYNEPIRTRVRKSIGRIVTMKRNSRNLEEIKPYLFRAIEESYYKLDKRIPKAIHVVAVTEDLDIVSRGRTFPHGISKETAYSESVKLLQKILEEDERKIRRIGVRFSKFIEAIGLDKFFDT

The variants in this data set derive from B1. The note with it: Saccharolobus solfataricus (strain ATCC 35092 / DSM 1617 / JCM 11322 / P2); pH 7.5; Thermal; CD; Na3PO4; NaCl MgCl2 50000 5000; structure 2RDI; whole UniProt chain shown.

Turning to R240A, the Tm is 96.5 °C and the “unfolding enthalpy (calorimetric)” value worked out at 93 kcal/mol.
With K148A E235A R240A, the Tm turned out to be 90.3 °C and the “unfolding enthalpy (calorimetric)” value turned out to be 172 kcal/mol.
On to E235A R240A, for which the Tm was 90.3 °C and the “unfolding enthalpy (calorimetric)” value came to 125 kcal/mol.
The matching figures for E100A E235A R240A: 88.3 °C and 193 kcal/mol.
The like results for E100A K148A E235A R240A were, in that order, 90 °C and 163 kcal/mol.
Take E100A K148A: the Tm stood at 89.4 °C and the “unfolding enthalpy (calorimetric)” value is 135 kcal/mol.
